This note sets out measurements from patent US20130108613A1.

In this experiment the target is monomeric synthetic human Aβ1-42 peptide (human). Kind of experiment: cell-based or functional assay.

For the substance “recombinant NIa (nuclear inclusion a) protease of Turnip mosaic virus (TuMV), purified from E. coli (from UniProt P89509 2117-2359) (enzyme)”, the reduction of monomeric Aβ level, densitometry of Western blot (6E10), 3 hrs at 25 °C, NIa pre-incubated with the cysteine protease inhibitor NEM amounted to 33%.
